These results are taken from patent publication US10947270B2, “Targeted prodrug cytosine deaminase fusion carrier and application thereof” (National Yang-Ming University, priority 2015, dated 2021).

Several values for one entry are separate records, joined by “and”; a condition that tells them apart may be missing. Equal entries are not always repeated. Where two headings read alike, the source gives them in different places. Some results are limits rather than exact numbers.

Series [1] is described as follows: Enzyme kinetic analysis of yCD series proteins after DTPA modification, marking and purification. The series is classed as biochemical. The conditions noted are these: for Vmax compared with the original enzyme activity: after EDTA with a 10-fold molar excess of protein. An excerpt:
The enzyme activity of yCD is not affected by DTPA modification.
FIGS. 24A-24B show the kinetic curve of yCD series protein modified, labeled and purified by DTPA. The enzyme activity of the two proteins is not affected by the labeling conditions. After adding EDTA with a 10-fold molar excess of protein, and it is competitively purified, In-DTPA-yCD compared with the original enzyme activity.
The curve and enzyme kinetic parameters (see FIG. 18 and Table 13) are fitted by the […] protein enzyme kinetics through the Michaelis-Menten formula in the Graph prism program.
Before the protein is labeled by radioisotope, its enzyme function must be determined, and based on the original enzyme function, it should be examined whether it will be affected during the radioactive marking process. The curve and enzyme kinetic parameters of protein are fitted by the Michaelis-Menten formula in the Graph prism program. […] Whether the yCD and RGD4C-yCD protein detected by the same method will be affected under the conditions of DTPA modification, marking and purification. […] After the completion of the radioactive metal mark, it is necessary to add EDTA of 10-fold protein Moire number and react at room temperature for 1 hour to compete for the radioactive metal isotope indium which is not chelated on DTPA. The EDTA in this step also has the chance to chelate the metal zinc ion of the enzyme catalytic center, the enzyme activity is impaired, so it is necessary to analyze the enzyme activity of In-DTPA-yCD and In-RGD4C-yCD protein after competition with EDTA. After the EDTA competitive reaction is completed, the enzyme kinetics analysis can be carried out by reducing the EDTA molecule weight through membrane centrifugation method and by replacing the solution with pH 7.0. […] The curve and receptor binding ability parameters of the protein and integrin αvβ3 are fitted under the conditions of DTPA modification, marking and purification by the One site-Specific binding formula in the Graph prism program (see FIG. 25 and Table 18). […] Although the two proteins after marking are greatly affected by the enzyme activity, they still have good binding ability to the integrin αvβ3 receptor. In consideration of the indispensability of EDTA for radiochemical purity, it retains a considerable amount of enzyme activity. In addition, the effect of integrin αvβ3 receptor binding ability is minimal, in combination of cell uptake, biodistribution and angiography experiment, focusing on the evaluation of target results, and the subsequent biological experiment is still carried out by the marking and purification conditions.

The format of series [2] is physicochemical. The procedure:
The radiochemical purity of ^111In-DTPA-yCD and ^111In-DTPA-RGD4C-yCD are greater than 95% after marking and purification. Both are stored in HEPES buffer liquid (4° C.) for 48 hours, and the radiochemical purity is still higher than 85% (see FIG. 26). Both are placed in fetal bovine serum (37° C.) to simulate their stability in vivo. After 48 hours, the radiochemical purity of both is about 80%. It is shown that radioactive metal indium-111 is stably chelated on DTPA.

On the set-up of series [3]: species or system nude mice. The following applies: mouse, in vivo. The protocol: ES-2-luc tumor nude mice is intraperitoneally injected with 50 μCi (2.5 μg) ^111In-DTPA-yCD and ^111In-DTPA-RGD4C-yCD for 1, 4 and 24 hours, then organs are collected and their radioactivity is measured to obtain biodistribution, as shown in Table 19 and Table 20. […] In addition to the part accumulated in the tumor, another part of the drug is absorbed back into the blood circulation system by the peritoneal blood vessels. […] The pancreatic radioactivity of the two drugs is observed after 1 hour of injection. The pancreatic radioactivity of ^111In-DTPA-RGD4C-yCD (8.06±0.88% ID/g) is higher than that of ^111In-DTPA-yCD (3.91±0.36% ID/g), it is suspected that tumor cells invade the pancreas.

Details of series [4]: species or system nude mice. The conditions noted are these: mouse, in vivo. The procedure:
The arrow is marked as a tumor.
In in-vitro cell experiment, the binding ability of ^111In-DTPA-RGD4C-yCD and the integrin αvβ3 receptor on the cell membrane has been verified. In order to know whether the drug can show its target effect in vivo, integrin αvβ3 is seeded subcutaneously in the right side of nude mice. After the high-expression U87MG tumor cells are grown to 100 mm^3, 60-70 μCi (3-3.5 μg) of ^111In-DTPA-yCD and ^111In-DTPA-RGD4C-yCD are injected directly into the tumor, the images are collected by microSPECT/CT after 1, 4, 24, 48 hours. It can be seen from the image (see FIG. 31) that the drug retention in the ^111In-DTPA-RGD4C-yCD group (orange arrow) is better than that in the ^111In-DTPA-yCD, and the target ligand RGD4C is missing. ^111In-DTPA-yCD enters the systemic blood circulation system within 1 hour and is metabolized by normal organs. From FIG. 31, it can be seen that the kidney is the main metabolic organ of these two drugs. […] After 24-48 hours, the amount of accumulation in the tumor is running out. On the contrary, ^111In-DTPA-RGD4C-yCD is bound with integrin αvβ3 on tumor cells, then the ratio of drug entering the systemic blood circulation is reduced, and the metabolic rate is slow.
The source holds these as a separate data set.

[5] abbreviates: after 10x EDTA competition and purification.

B1: DTPA-yCD: yCD protein modified by the metal chelating agent DTPA (conjugate)
chain: MVVTGGMASKWDQKGMDIAYEEAALGYKEGGVPIGGCLINNKDGSVLGRGHNMRFQKGSATLHGEISTLENCGRLEGKVYKDTTLYTTLSPCDMCTGAIIMYGIPRCVVGENVNFKSKGEKYLQTRGHEVVVVDDERCKKIMKQFIDERPQDWFEDIGELEHHHHHH
Consider B1, for which, in series [1], the Km was 840 µM and 1040 µM; the Vmax is 286.8 ± 10.80 µM/min.

B2: In-DTPA-yCD: DTPA-yCD treated with the stable isotope of indium under simulated marking conditions (conjugate)
chain: MVVTGGMASKWDQKGMDIAYEEAALGYKEGGVPIGGCLINNKDGSVLGRGHNMRFQKGSATLHGEISTLENCGRLEGKVYKDTTLYTTLSPCDMCTGAIIMYGIPRCVVGENVNFKSKGEKYLQTRGHEVVVVDDERCKKIMKQFIDERPQDWFEDIGELEHHHHHH
For the molecule B2, in series [1], the Km stood at 1120 ± 58.7 µM, the Vmax was determined as 270.0 ± 6.165 µM/min and the “Vmax compared with the original enzyme activity” value came to 47%. Besides, in series [1] (setting [5]), the Km worked out at 1930 ± 286 µM and the Vmax stood at 125.2 ± 9.652 µM/min.

B3: ^111In-DTPA-yCD: indium-111 labeled DTPA-yCD protein (conjugate, UniProt Q12178 1-158, looked up)
Cytosine deaminase: MVTGGMASKWDQKGMDIAYEEAALGYKEGGVPIGGCLINNKDGSVLGRGHNMRFQKGSATLHGEISTLENCGRLEGKVYKDTTLYTTLSPCDMCTGAIIMYGIPRCVVGENVNFKSKGEKYLQTRGHEVVVVDDERCKKIMKQFIDERPQDWFEDIGE
modifications: 111In-DTPA label
notes: indium-111 labeled DTPA-yCD protein
B3: the “radiochemical purity after incubation” value in series [2] was “about 80%”. Further, the “radioactivity in the peritoneal cavity reduced to (fraction of 1 hour value)” value in series [3] is on record as “½”. Further, the “time to enter the systemic blood circulation system” value in series [4] was no more than 1 h.

B4: DTPA-RGD4C-yCD: RGD4C-yCD protein modified by the metal chelating agent DTPA (conjugate)
chain: MACDCRGDCFCVTGGMASKWDQKGMDIAYEEAALGYKEGGVPIGGCLINNKDGSVLGRGHNMRFQKGSATLHGEISTLENCGRLEGKVYKDTTLYTTLSPCDMCTGAIIMYGIPRCVVGENVNFKSKGEKYLQTRGHEVVVVDDERCKKIMKQFIDERPQDWFEDIGELEHHHHHH
With B4, the Km in series [1] is 1160 ± 108 µM. Besides, the Vmax in series [1] and in series [1] (listed as DTPA- RGD4C-yCD) was 224.6 ± 8.408 µM/min throughout. In series [1] (after DTPA modification), the “Vmax compared with the original protein” value is on record as 80%.

B5: In-DTPA-RGD4C-yCD: DTPA-RGD4C-yCD treated with the stable isotope of indium under simulated marking conditions (conjugate)
chain: MACDCRGDCFCVTGGMASKWDQKGMDIAYEEAALGYKEGGVPIGGCLINNKDGSVLGRGHNMRFQKGSATLHGEISTLENCGRLEGKVYKDTTLYTTLSPCDMCTGAIIMYGIPRCVVGENVNFKSKGEKYLQTRGHEVVVVDDERCKKIMKQFIDERPQDWFEDIGELEHHHHHH
Take B5: in series [1], the Km is 956 ± 76.8 µM, the Vmax was 226.8 ± 6.918 µM/min and the “Vmax compared with the original enzyme activity” value is on record as 40%. Further, in series [1] (setting [5]), the Km is 1630 ± 273 µM and the Vmax is 117.7 ± 9.510 µM/min.
